Test results: patent US20040203002
pKd: −log10 of the molar value. Read-outs that look alike come from different tables or passages of the source.

Experiments:
[1] = molecular target: Zif268 finger 2 variant LRHN finger 2 alpha-helix variant LRHN (full helix only in FIG. 1D) (Mus musculus) (UniProt P08046); experiment: ELONA; conditions: [none]; apparent Kd, phage ELISA, PBS/Zn, RT
[2] = molecular target: Zif268 finger 2 variant KASN finger 2 alpha-helix variant KASN (full helix only in FIG. 1D) (Mus musculus) (UniProt P08046); experiment: ELONA; conditions: [none]; apparent Kd, phage ELISA, PBS/Zn, RT
[3] = molecular target: Zif268 finger 2 variant REDV finger 2 alpha-helix variant REDV (full helix only in FIG. 1D) (Mus musculus) (UniProt P08046); conditions: [none]
[4] = molecular target: Zif268 finger 2 variant RGPD finger 2 alpha-helix variant RGPD (full helix only in FIG. 1D) (Mus musculus) (UniProt P08046); conditions: [none]
[5] = molecular target: Zif268 finger 2 variant KASN finger 2 alpha-helix variant KASN (full helix only in FIG. 1D) (Mus musculus) (UniProt P08046); conditions: [none]
[6] = molecular target: Zif268 finger 2 variant LRHN finger 2 alpha-helix variant LRHN (full helix only in FIG. 1D) (Mus musculus) (UniProt P08046); conditions: [none]
[7] = molecular target: Zif268 finger 2 variant REDV finger 2 alpha-helix variant REDV (full helix only in FIG. 1D) (Mus musculus) (UniProt P08046); experiment: ELONA; conditions: [none]; apparent Kd, phage ELISA, PBS/Zn, RT
[8] = molecular target: Zif268 finger 2 variant RGPD finger 2 alpha-helix variant RGPD (full helix only in FIG. 1D) (Mus musculus) (UniProt P08046); experiment: ELONA; conditions: [none]; apparent Kd, phage ELISA, PBS/Zn, RT
[9] = molecular target: Zif268 wildtype (three zinc fingers, phage displayed) (Mus musculus) (UniProt P08046); experiment: ELONA; conditions: apparent non-equilibrium Kd, phage ELISA, all values scaled to this one (3.0 nM); PBS/Zn, milk, Tween 20, salmon testes DNA, RT
[10] = apparent Kd interpolated from microarray signal 0.063
[11] = apparent Kd interpolated from microarray signal 0.122

TATATAGCGAATGCGTATATATCAAGTCAATCGGTCC (double strand) [Zif268 site AAT]
pKd [1]: 6.96
pKd [2]: 6.60

TATATAGCGACGGCGTATATATCAAGTCAATCGGTCC (double strand) [Zif268 site ACG]
pKd [3, 10]: 5.77
pKd ([4]; apparent Kd interpolated from microarray signal 0.143): 6.16

TATATAGCGACTGCGTATATATCAAGTCAATCGGTCC (double strand) [Zif268 site ACT]
pKd ([5]; apparent Kd interpolated from microarray signal 0.949): 6.59
pKd ([6]; apparent Kd interpolated from microarray signal 0.342): 6.80

TATATAGCGAGTGCGTATATATCAAGTCAATCGGTCC (double strand) [Zif268 site AGT]
pKd ([5]; apparent Kd interpolated from microarray signal 0.862): 6.49
pKd ([6]; apparent Kd interpolated from microarray signal 0.449): 7.03

TATATAGCGATGGCGTATATATCAAGTCAATCGGTCC (double strand) [Zif268 site ATG]
pKd ([3]; apparent Kd interpolated from microarray signal 0.069): 5.80
pKd ([4]; apparent Kd interpolated from microarray signal 0.136): 6.14

TATATAGCGATTGCGTATATATCAAGTCAATCGGTCC (double strand) [Zif268 site ATT]
pKd ([5]; apparent Kd interpolated from microarray signal 0.942): 6.57
pKd [1]: 6.62

TATATAGCGCAGGCGTATATATCAAGTCAATCGGTCC (double strand) [Zif268 site CAG]
pKd ([3]; apparent Kd interpolated from microarray signal 0.056): 5.74
pKd ([4]; apparent Kd interpolated from microarray signal 0.105): 6.09

TATATAGCGCATGCGTATATATCAAGTCAATCGGTCC (double strand) [Zif268 site CAT]
pKd [1]: 6.92

TATATAGCGCCCGCGTATATATCAAGTCAATCGGTCC (double strand) [Zif268 site CCC]
pKd [3, 10]: 5.77
pKd ([4]; apparent Kd interpolated from microarray signal 0.119): 6.11

TATATAGCGCCGGCGTATATATCAAGTCAATCGGTCC (double strand) [Zif268 site CCG]
pKd [7]: 6.06
pKd [8]: 6.60

TATATAGCGCCTGCGTATATATCAAGTCAATCGGTCC (double strand) [Zif268 site CCT]
pKd ([5]; apparent Kd interpolated from microarray signal 0.974): 6.60
pKd ([6]; apparent Kd interpolated from microarray signal 0.298): 6.70

TATATAGCGCGCGCGTATATATCAAGTCAATCGGTCC (double strand) [Zif268 site CGC]
pKd ([5]; apparent Kd interpolated from microarray signal 0.774): 6.41

TATATAGCGCGGGCGTATATATCAAGTCAATCGGTCC (double strand) [Zif268 site CGG]
pKd [2]: 5.84

TATATAGCGCGTGCGTATATATCAAGTCAATCGGTCC (double strand) [Zif268 site CGT]
pKd ([5]; apparent Kd interpolated from microarray signal 0.848): 6.48
pKd ([6]; apparent Kd interpolated from microarray signal 0.330): 6.77

TATATAGCGCTCGCGTATATATCAAGTCAATCGGTCC (double strand) [Zif268 site CTC]
pKd ([3]; apparent Kd interpolated from microarray signal 0.058): 5.74
pKd [4, 11]: 6.12

TATATAGCGGAAGCGTATATATCAAGTCAATCGGTCC (double strand) [Zif268 site GAA]
pKd ([5]; apparent Kd interpolated from microarray signal 0.697): 6.00

TATATAGCGGACGCGTATATATCAAGTCAATCGGTCC (double strand) [Zif268 site GAC]
pKd ([5]; apparent Kd interpolated from microarray signal 0.652): 5.89

TATATAGCGGAGGCGTATATATCAAGTCAATCGGTCC (double strand) [Zif268 site GAG]
pKd ([3]; apparent Kd interpolated from microarray signal 0.120): 6.16
pKd ([4]; apparent Kd interpolated from microarray signal 0.151): 6.17

TATATAGCGGATGCGTATATATCAAGTCAATCGGTCC (double strand) [Zif268 site GAT]
pKd ([6]; apparent Kd interpolated from microarray signal 0.500): 7.14

TATATAGCGGCAGCGTATATATCAAGTCAATCGGTCC (double strand) [Zif268 site GCA]
pKd ([3]; apparent Kd interpolated from microarray signal 0.108): 5.89
pKd ([4]; apparent Kd interpolated from microarray signal 0.216): 6.29

TATATAGCGGCCGCGTATATATCAAGTCAATCGGTCC (double strand) [Zif268 site GCC]
pKd [8]: 6.22
pKd ([3]; apparent Kd interpolated from microarray signal 0.084): 5.82

TATATAGCGGCGGCGTATATATCAAGTCAATCGGTCC (double strand) [Zif268 site GCG]
pKd [7]: 7.96
pKd [8]: 7.77

TATATAGCGGCTGCGTATATATCAAGTCAATCGGTCC (double strand) [Zif268 site GCT]
pKd ([3]; apparent Kd interpolated from microarray signal 0.077): 5.80
pKd ([4]; apparent Kd interpolated from microarray signal 0.406): 6.66

TATATAGCGGGCGCGTATATATCAAGTCAATCGGTCC (double strand) [Zif268 site GGC]
pKd ([5]; apparent Kd interpolated from microarray signal 0.636): 5.85

TATATAGCGGGGGCGTATATATCAAGTCAATCGGTCC (double strand) [Zif268 site GGG]
pKd ([5]; apparent Kd interpolated from microarray signal 0.612): 5.77
pKd [3, 11]: 5.96
pKd ([4]; apparent Kd interpolated from microarray signal 0.118): 6.11

TATATAGCGGGTGCGTATATATCAAGTCAATCGGTCC (double strand) [Zif268 site GGT]
pKd ([5]; apparent Kd interpolated from microarray signal 0.616): 5.80
pKd ([6]; apparent Kd interpolated from microarray signal 0.238): 6.59

TATATAGCGGTGGCGTATATATCAAGTCAATCGGTCC (double strand) [Zif268 site GTG]
pKd [7]: 7.96
pKd ([4]; apparent Kd interpolated from microarray signal 0.175): 6.21

TATATAGCGTACGCGTATATATCAAGTCAATCGGTCC (double strand) [Zif268 site TAC]
pKd ([6]; apparent Kd interpolated from microarray signal 0.329): 6.77

TATATAGCGTAGGCGTATATATCAAGTCAATCGGTCC (double strand) [Zif268 site TAG]
pKd [1]: 6.96
pKd [2]: 6.41

TATATAGCGTATGCGTATATATCAAGTCAATCGGTCC (double strand) [Zif268 site TAT]
pKd [1]: 8.20
pKd [2]: 6.57

TATATAGCGTCTGCGTATATATCAAGTCAATCGGTCC (double strand) [Zif268 site TCT]
pKd ([3]; apparent Kd interpolated from microarray signal 0.083): 5.82
pKd ([4]; apparent Kd interpolated from microarray signal 0.146): 6.16

TATATAGCGTGGGCGTATATATCAAGTCAATCGGTCC (double strand) [Zif268 site TGG]
pKd [9]: 8.52

TATATAGCGTGTGCGTATATATCAAGTCAATCGGTCC (double strand) [Zif268 site TGT]
pKd ([5]; apparent Kd interpolated from microarray signal 0.856): 6.49
pKd ([6]; apparent Kd interpolated from microarray signal 0.384): 6.89
